Measured values taken from publication PMC3265891 (The Journal of Biological Chemistry, 2011).
Changes are numbered by the printed parent chain. Numbers in names are those of the source.

B1: human UDP-glucose 6-dehydrogenase E161Q mutant (C-terminally truncated) (enzyme, UniProt O60701 1-467, looked up)
chain: MFEIKKICCIGAGYVGGPTCSVIAHMCPEIRVTVVDVNESRINAWNSPTLPIYEPGLKEVVESCRGKNLFFSTNIDDAIKEADLVFISVNTPTKTYGMGKGRAADLKYIEACARRIVQNSNGYKIVTEKSTVPVRAAESIRRIFDANTKPNLNLQVLSNPQFLAEGTAIKDLKNPDRVLIGGDETPEGQRAVQALCAVYEHWVPREKILTTNTWSSELSKLAANAFLAQRISSINSISALCEATGADVEEVATAIGMDQRIGNKFLKASVGFGGSCFQKDVLNLVYLCEALNLPEVARYWQQVIDMNDYQRRRFASRIIDSLFNTVTDKKIAILGFAFKKDTGDTRESSSIYISKYLMDEGAHLHIYDPKVPREQIVVDLSHPGVSEDDQVSRLVTISKDPYEACDGAHAVVICTEWDMFKELDYERIHKKMLKPAFIFDGRRVLDGLHNELQTIGFQIETIGKKVS
B2: human UDP-glucose 6-dehydrogenase D280A mutant (C-terminally truncated) (enzyme, UniProt O60701 1-467, looked up)
chain: B1 chain with Q161E, D280A
B3: human UDP-glucose 6-dehydrogenase T131S mutant (C-terminally truncated) (enzyme, UniProt O60701 1-467, looked up)
chain: B1 chain with T131S, Q161E
B4: human UDP-glucose 6-dehydrogenase K220A mutant (C-terminally truncated) (enzyme, UniProt O60701 1-467, looked up)
chain: B1 chain with Q161E, K220A
B5: human UDP-glucose 6-dehydrogenase N224A mutant (C-terminally truncated) (enzyme, UniProt O60701 1-467, looked up)
chain: B1 chain with Q161E, N224A
B6: human UDP-glucose 6-dehydrogenase E161Q mutant (thiohemiacetal intermediate) (enzyme, UniProt O60701 1-467, looked up)
chain: B1 chain
modifications: Cys276 covalently modified: Sγ bonded to C6 of the UDP-Glc-derived substrate (thiohemiacetal)

Target: the molecule itself
Test: SEC

Protein	stoichiometry N
B1	6
B2	6
B3	6
B4	6
B5	6

Target: the molecule itself
Test: crystal structure

Protein	binding result
B6	binds
